B1: 2mGRFT (2mG) (mGRFT-GlyThrGly-mGRFT) (designed binder)
chain: SSTHRKFGGSGGSPFSGSGLSSIAVRSGSYLDAIIIDGVHHGGSGGNLSPTFTFGSGEYISNMTIRSGDYIDNISFETNMGRRFGPYGGSGGSANTLSNVKVIQINGSAGDYLDSLDIYYEQYGTGSSTHRKFGGSGGSPFSGSGLSSIAVRSGSYLDAIIIDGVHHGGSGGNLSPTFTFGSGEYISNMTIRSGDYIDNISFETNMGRRFGPYGGSGGSANTLSNVKVIQINGSAGDYLDSLDIYYEQY
B2: 3mGRFT (3mG) (mGRFT-GlyThrGly-mGRFT-GlyThrGly-mGRFT) (designed binder)
chain: SSTHRKFGGSGGSPFSGSGLSSIAVRSGSYLDAIIIDGVHHGGSGGNLSPTFTFGSGEYISNMTIRSGDYIDNISFETNMGRRFGPYGGSGGSANTLSNVKVIQINGSAGDYLDSLDIYYEQYGTGSSTHRKFGGSGGSPFSGSGLSSIAVRSGSYLDAIIIDGVHHGGSGGNLSPTFTFGSGEYISNMTIRSGDYIDNISFETNMGRRFGPYGGSGGSANTLSNVKVIQINGSAGDYLDSLDIYYEQYGTGSSTHRKFGGSGGSPFSGSGLSSIAVRSGSYLDAIIIDGVHHGGSGGNLSPTFTFGSGEYISNMTIRSGDYIDNISFETNMGRRFGPYGGSGGSANTLSNVKVIQINGSAGDYLDSLDIYYEQY
B3: 2mGRFT^long (2mG3) (mGRFT-GlyThrGlyGlyThrGlyGlyThrGly-mGRFT) (designed binder)
chain: SSTHRKFGGSGGSPFSGSGLSSIAVRSGSYLDAIIIDGVHHGGSGGNLSPTFTFGSGEYISNMTIRSGDYIDNISFETNMGRRFGPYGGSGGSANTLSNVKVIQINGSAGDYLDSLDIYYEQYGTGGTGGTGSSTHRKFGGSGGSPFSGSGLSSIAVRSGSYLDAIIIDGVHHGGSGGNLSPTFTFGSGEYISNMTIRSGDYIDNISFETNMGRRFGPYGGSGGSANTLSNVKVIQINGSAGDYLDSLDIYYEQY
notes: also called 2mGRFT3; 2mrG3
B4: monomeric griffithsin mGRFT (1GS-S, PDB ID 3LL2) (designed binder)
chain: SSTHRKFGGSGGSPFSGSGLSSIAVRSGSYLDAIIIDGVHHGGSGGNLSPTFTFGSGEYISNMTIRSGDYIDNISFETNMGRRFGPYGGSGGSANTLSNVKVIQINGSAGDYLDSLDIYYEQY
notes: also called IGS-S; GRFT monomer
B5: 4mGRFT (4mG) (mGRFT-GlyThrGly-mGRFT-GlyThrGly-mGRFT-GlyThrGly-mGRFT) (designed binder)
chain: SSTHRKFGGSGGSPFSGSGLSSIAVRSGSYLDAIIIDGVHHGGSGGNLSPTFTFGSGEYISNMTIRSGDYIDNISFETNMGRRFGPYGGSGGSANTLSNVKVIQINGSAGDYLDSLDIYYEQYGTGSSTHRKFGGSGGSPFSGSGLSSIAVRSGSYLDAIIIDGVHHGGSGGNLSPTFTFGSGEYISNMTIRSGDYIDNISFETNMGRRFGPYGGSGGSANTLSNVKVIQINGSAGDYLDSLDIYYEQYGTGSSTHRKFGGSGGSPFSGSGLSSIAVRSGSYLDAIIIDGVHHGGSGGNLSPTFTFGSGEYISNMTIRSGDYIDNISFETNMGRRFGPYGGSGGSANTLSNVKVIQINGSAGDYLDSLDIYYEQYGTGSSTHRKFGGSGGSPFSGSGLSSIAVRSGSYLDAIIIDGVHHGGSGGNLSPTFTFGSGEYISNMTIRSGDYIDNISFETNMGRRFGPYGGSGGSANTLSNVKVIQINGSAGDYLDSLDIYYEQY

In one experiment the target is HIV envelope glycoprotein gp120 (HIV). The experiment can be described thus: ITC, 30 °C, tandemer (180 µM) titrated into gp120 (2.5 µM). On the technique in general: ITC needs no label: the signal is the heat of the interaction.
Turning to B1, binding was put at a Kd of 5000 pM, the TΔS was -59.9 kcal/mol, the ΔG was -11.6 kcal/mol and the ΔH is -69.6 kcal/mol.
Regarding B2, the Kd – broadly, the equilibrium constant for the complex coming apart – came out at 3000 pM; the TΔS was -62.7 kcal/mol; the ΔG was -11.8 kcal/mol; the ΔH is -74.4 kcal/mol.
Taken in the same sequence, the figures for B3 were 3000 pM, -35.4 kcal/mol, -11.8 kcal/mol and -47.2 kcal/mol.

The next experiment has the same target. The experiment is described as follows: ITC, 30 °C, lectin titrated into gp120.
B4 registered a Kd of 112000 pM, a TΔS of -26 kcal/mol, a ΔG of -9.47 kcal/mol and a ΔH of -35.5 kcal/mol.

The next experiment deals with HIV-1 subtype A envelope Q168.a2 (HIV-1 subtype A). The experiment can be described thus: cell-based or functional assay.
B1: the “IC50 (pseudovirus neutralization, JC53bl-13 cells)” value (from here on “IC50”) is 1550 pM.
On the same count and under the same terms, the value for B2 was 331 pM; that for B3 was 5280 pM.
The same measure, in the same setting: the value for B5 was 273 pM.

The next experiment addresses HIV-1 subtype B envelope JR-FL (HIV-1 subtype B). The experiment can be described thus: cell-based or functional assay.
For B1, the “IC50” value amounted to 2090 pM.
The same measure, in the same setting: the value for B2 was 325 pM; that for B3 was 5770 pM.
Turning to B5, the “IC50” value was determined as 287 pM.

The target of the next experiment is HIV-1 subtype B envelope PVO.4 (HIV-1 subtype B). The experiment can be described thus: cell-based or functional assay.
Regarding B1, the “IC50” value came to 301 pM.
Same read-out and setting: under B2 stands 270 pM; under B3, 558 pM; under B5, 185 pM.

The target of a further experiment is HIV-1 subtype B envelope QH0692.42 (HIV-1 subtype B). The experiment can be described thus: cell-based or functional assay.
Turning to B1, the “IC50” value was determined as 202 pM.
Still for that read-out and setting: under B2 stands 223 pM; under B3, 513 pM; under B5, 170 pM.

A further experiment has as its target HIV-1 subtype C envelope Du156.12 (HIV-1 subtype C). The experiment is described as follows: cell-based or functional assay.
Consider B1, for which the “IC50” value stood at 18.2 pM.
Take B2: the “IC50” value amounted to 79.4 pM.
On the same count and under the same terms, the value for B3 was 61.6 pM; that for B5 was 88.7 pM.

The target of the next experiment is HIV-1 subtype C envelope COT6.15 (HIV-1 subtype C). The experiment can be described thus: cell-based or functional assay.
As for B1, the “IC50” value stood at 1460 pM.
Same read-out and setting: the value for B2 was 412 pM; that for B3 was 2520 pM.
Still for that read-out and setting: the value for B5 was 273 pM.

A further experiment concerns the target HIV-1 subtype A envelope Q23.17 (HIV-1 subtype A). The experiment can be described thus: cell-based or functional assay.
Regarding B1, the “IC50” value amounted to 7260 pM.
On the same count and under the same terms, under B2 stands 462 pM.
On the same count and under the same terms, under B3 stands 7160 pM.
Take B5: the “IC50” value was found to be 276 pM.

The target in another experiment is HIV-1 subtype C envelope DU151.2 (HIV-1 subtype C). The experiment can be described thus: cell-based or functional assay.
With B1, the “IC50” value is 694 pM.
Same read-out and setting: under B2 stands 308 pM; under B3, 1700 pM; under B5, 300 pM.

The target in another experiment is HIV-1 subtype C envelope CAP206.8 (HIV-1 subtype C). The experiment can be described thus: cell-based or functional assay.
Regarding B1, the “IC50” value stood at 178 pM.
As to B2, the “IC50” value stood at 181 pM.
Same read-out and setting: under B3 stands 696 pM; under B5, 164 pM.

A further experiment deals with HIV-1 subtype C envelope Du179.14 (HIV-1 subtype C). The experiment is described as follows: cell-based or functional assay.
In the case of B1, the “IC50” value stood at 158 pM.
On the same count and under the same terms, the value for B2 was 124 pM.
On the same count and under the same terms, under B3 stands 144 pM; under B5, 93.4 pM.

For the next experiment, the target named is HIV-1 subtype B envelope CAAN5342.A2 (HIV-1 subtype B). The experiment is described as follows: cell-based or functional assay.
Consider B1, for which the “IC50” value worked out at 5270 pM.
Same read-out and setting: under B2 stands 326 pM.
On the same count and under the same terms, the value for B3 was 16900 pM; that for B5 was 232 pM.

Another experiment addresses Env of HIV-1RF virus (HIV-1 RF). The experiment is described as follows: cell-based or functional assay.
On to B4, for which the “Anti-HIV EC50 (XTT cytopathicity assay, HIV-1RF, CEM-SS cells)” value was 119000 pM.
The same measure, in the same setting: under B1 stands 2.7 pM; under B2, 1 pM.
As for B3, the “Anti-HIV EC50 (XTT cytopathicity assay, HIV-1RF, CEM-SS cells)” value was 2.6 pM.
On the same count and under the same terms, under B5 stands 1.2 pM.

The target of the next experiment is HIV envelope glycoprotein gp120 (HIV). The experiment is described as follows: ITC.
Regarding B1, the “enthalpy/entropy compensation (ΔH/ΔS) ratio” value was found to be 1.16.
On the same count and under the same terms, under B2 stands 1.19.
Still for that read-out and setting: under B3 stands 1.33.

Another experiment has as its target GRFT-resistant envelope Du179 GRFT c17 (R). The experiment is described as follows: cell-based or functional assay.
B1: the “IC50” value is 36000 pM; the “fold reduction in activity between the WT (Du179.14) and R viruses” value was determined as 228 fold.
Taken in the same sequence, the figures for B2 were 3860 pM and 31 fold.
In the same order, the values of B3 are 34400 pM and 239 fold.
In the same order, the values of B5 are 2080 pM and 22 fold.

The target of the next experiment is GRFT-resistant envelope Du156R18 (R). The experiment is described as follows: cell-based or functional assay.
With B1, the “IC50” value worked out at 27100 pM; the “fold reduction in activity between the WT (Du156.12) and R viruses” value came out at 1490 fold.
Taken in the same sequence, the figures for B2 were 1110 pM and 14 fold.
In the same order, the values of B3 are 26000 pM and 422 fold.
Taken in the same sequence, the figures for B5 were 688 pM and 8 fold.

(Values after patent publication US20160108097A1 (UNITED STATES OF AMERICA AS REPRESENTED BY THE SECRETARY …, published 2016).)
